The target of assay [1] is T1, human LAG-3 on cells (HEK293-hLAG-3 stable cell line) (human, UniProt P18627 23-525).
T1 sequence: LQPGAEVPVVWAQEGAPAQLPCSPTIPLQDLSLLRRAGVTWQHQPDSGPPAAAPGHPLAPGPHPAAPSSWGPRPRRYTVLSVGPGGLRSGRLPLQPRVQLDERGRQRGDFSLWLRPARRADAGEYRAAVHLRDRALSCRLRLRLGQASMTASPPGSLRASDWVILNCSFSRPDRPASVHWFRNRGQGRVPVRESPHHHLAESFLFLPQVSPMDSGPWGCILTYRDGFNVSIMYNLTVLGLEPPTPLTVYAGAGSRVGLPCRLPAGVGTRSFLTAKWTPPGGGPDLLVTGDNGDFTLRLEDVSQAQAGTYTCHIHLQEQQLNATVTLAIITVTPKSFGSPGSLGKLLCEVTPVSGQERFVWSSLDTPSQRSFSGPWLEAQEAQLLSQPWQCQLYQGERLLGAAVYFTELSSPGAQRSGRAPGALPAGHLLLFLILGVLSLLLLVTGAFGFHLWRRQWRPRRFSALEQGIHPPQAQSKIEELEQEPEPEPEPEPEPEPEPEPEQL
Nature of the assay: FACS, HEK293-hLAG-3, antibody 8 nM. For orientation: Flow cytometry measures light scatter and fluorescence of single cells or particles in a stream.

Assay [2] addresses T1, human LAG-3 on cells (HEK293-hLAG-3 …). Nature of the assay: FACS, HEK293-hLAG-3, antibody 40 nM.
The target is the same in assay [3]. Nature of the assay: FACS, HEK293-hLAG-3, antibody 0 nM.
Assay [4] has the same target. Nature of the assay: FACS, HEK293-hLAG-3, antibody 0.32 nM.
Assay [5] shares this target. Nature of the assay: FACS, HEK293-hLAG-3, antibody 0.064 nM.
For assay [6] the target is unchanged. Nature of the assay: FACS, HEK293-hLAG-3, antibody 1.6 nM.
Assay [7] shares this target. In words: FACS, HEK293-hLAG-3, antibody 0.013 nM.
The target is the same in assay [8]. Nature of the assay: FACS, HEK293-hLAG-3, antibody 1.6 nM. This is another data set of the same source.
For assay [9] the target is unchanged. Nature of the assay: FACS, HEK293-hLAG-3, antibody 40 nM. An excerpt: (§1) A. The binding of antibodies to LAG-3 expressing cells was detected by Flow cytometry (FACS), wherein the method was according to that of Example 5.
The source holds these as a separate data set.

For assay [10] the target is unchanged. Nature of the assay: FACS, HEK293-hLAG-3, antibody 0.013 nM.
From the text: as §1
This is another data set of the same source.

The target is the same in assay [11]. In words: FACS, HEK293-hLAG-3, antibody 0 nM. The source holds these as a separate data set.
The target is the same in assay [12]. In words: FACS, HEK293-hLAG-3, antibody 0.064 nM.
From the text: as §1
The source holds these as a separate data set.

Assay [13] concerns the target T2, human LAG-3 ECD (antigen protein of the affinity test) (human, UniProt P18627 23-450).
T2 sequence: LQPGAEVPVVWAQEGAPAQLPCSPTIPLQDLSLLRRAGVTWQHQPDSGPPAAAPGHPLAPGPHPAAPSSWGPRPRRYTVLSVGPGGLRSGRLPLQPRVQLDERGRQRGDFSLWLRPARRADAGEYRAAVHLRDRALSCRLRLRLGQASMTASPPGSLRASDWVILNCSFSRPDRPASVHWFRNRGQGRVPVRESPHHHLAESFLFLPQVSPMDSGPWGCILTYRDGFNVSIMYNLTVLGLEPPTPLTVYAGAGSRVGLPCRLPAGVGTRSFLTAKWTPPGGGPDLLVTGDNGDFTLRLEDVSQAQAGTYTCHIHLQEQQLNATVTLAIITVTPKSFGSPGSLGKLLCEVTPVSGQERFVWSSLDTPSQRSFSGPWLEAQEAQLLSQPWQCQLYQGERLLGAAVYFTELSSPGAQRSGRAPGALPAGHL
Nature of the assay: SPR, CM5 chip, antibody captured by anti-human Fc IgG, antigen in flow, 1:1 fit. Here is the method:
First, anti-human Fc IgG was immobilized on the surface of the CM5 chip to 6000-10000 RU by amino coupling method, with FC1 as the reference channel. The coupling process was as follows: a freshly prepared 1:1 mixture of 50 mM NHS and 200 mM EDC was activated for 7 minutes, then injected with 10-50 ug/ml anti-human Fc IgG diluted in 10 mM sodium acetate ph5.0 buffer. The remaining activated sites were blocked with 1M ethanolamine. Then, HBS-EP+ buffer was used to dilute the antibody to be tested to 5 ug/ml (adjustable according to the capture level) and the antibodies were captured on the chip at a flow rate of 10 ul/min to obtain a response value of about 100˜300 RU. Then the antigen protein was diluted to 100 nM (the highest concentration was tentatively 100 nM), and flew through the chip surface at a flow rate of 30 ul/min. If enough signal value was obtained, the antigen-protein was diluted by several concentration gradients, and flew through the chip surface respectively. At the end of each cycle, the chip surface was regenerated with 10 mM Glycine at pH 1.5. The kinetic rate constant needed to be subtracted from the blank control, and the data was fitted with the global fit analysis method 1:1 combination model. The dissociation equilibrium rate constant (KD) was calculated according to the following formula: KD=kd/ka.

The target of assay [14] is T1, human LAG-3 on cells (HEK293-hLAG-3 …). Nature of the assay: FACS, HEK293-hLAG-3, antibody 8 nM.
From the text: as §1
This is another data set of the same source.

The target is the same in assay [15]. In words: FACS, HEK293-hLAG-3, antibody 0.32 nM.
From the text: as §1
The source holds these as a separate data set.

Residue numbers refer to the chain shown, from its start.

B1: 556F6B8-6 humanized antibody (antibody, V domains shown)
VH: QVQLQESGPGLVKPSETLSLTCTVSGFSIIKYGVHWIRQPPGKGLEWIGVIWRGGITDYNAAFMSRVTISVDTSKNQFSLKLSSVTAADTAVYYCARWDGPLAMDYWGQGTTVTVSS
VL: DIVLTQSPSFLSASVGDRVTITCKASQDVGTTVAWYQQKPGKAPKLLIYWASTRHTGVPSRFSGSGSGTEFTLTISSLQPEDFATYYCQQYSSYPYTFGQGTKLEIK
As for B1, the Mean fluorescence intensity came to 39 in assay [1]; 50 in assay [2]; 4 in assay [3]; 10 in assay [4]; 6 in assay [5]; 23 in assay [6]. The Mean fluorescence intensity in [7] came to 4.

B2: 556F6B8-1 humanized antibody (antibody, V domains shown)
VH: B1 VH with F27G, I30S
VL: B1 VL with V3Q
As to B2, the Mean fluorescence intensity in assay [1] was 19; in assay [2], 33; in assay [3], 4; in [4], 5; in assay [5], 4; in [6], 9. The molecule further had a Mean fluorescence intensity in assay [7] of 4.

B3: 405B8H3-2 humanized antibody (antibody, V domains shown)
VH: QVQLVQSGAEVKKPGASVKVSCKASGYTFTDYEMHWVRQAPGQGLEWMGATDPETGNSAYNQKFKGRVTMTADKSTSTVYMELSSLRSEDTAVYYCISTGWNDWGQGTTVTVSS
VL: DIQMTQSPSSLSASVGDRVTITCKASQDINSYLSWFQQKPGKAPKSLIYRADRLLDGVPSRFSGSGSGTDFTLTISSLQPEDFATYYCLQYDEFPYTFGQGTKLEIK
Consider B3, for which the Mean fluorescence intensity in assay [8] came to 188; in assay [9], 272; in assay [10], 11; in assay [11], 4; in [12], 27; in assay [14], 245. For the same molecule, the Mean fluorescence intensity in assay [15] was 82. The Kd in assay [13] amounted to 1.68 nM. In addition, in [13], the koff amounted to 0.000184 s⁻¹. In addition, in assay [13], the kon came out at 110000 M⁻¹ s⁻¹.

B4: 405B8H3-6 humanized antibody (antibody, V domains shown)
VH: B3 VH
VL: B3 VL with T69Q, F71Y
For the molecule B4, the Mean fluorescence intensity amounted to 179 in [8]; 254 in [9]; 9 in [10]; 4 in [11]; 21 in [12]; 242 in assay [14]. This molecule also yielded a Mean fluorescence intensity in assay [15] of 66. Besides, the Kd in assay [13] was found to be 2.04 nM. Moreover, the koff in assay [13] is 0.000193 s⁻¹. Also, in [13], the kon was 94900 M⁻¹ s⁻¹.

B5: 405B8H3-7 humanized antibody (antibody, V domains shown)
VH: B3 VH with M48I, V68A, V79A
VL: B3 VL with T69Q, F71Y
As to B5, the Mean fluorescence intensity in assay [8] came to 163; in assay [9], 252; in assay [10], 9; in assay [11], 4; in [12], 21; in assay [14], 230. In assay [15], this molecule returned a Mean fluorescence intensity of 62. Besides, the Kd in assay [13] was 3.28 nM. Moreover, in assay [13], the koff is 0.000316 s⁻¹. Besides, the kon in [13] was 96400 M⁻¹ s⁻¹.

B6: 405B8H3-10 humanized antibody (antibody, V domains shown)
VH: B3 VH
VL: B3 VL with Q3K, A43S, T69Q, F71Y
For the molecule B6, the Mean fluorescence intensity in assay [8] was 184; in assay [9] it was 238; in assay [10], 11; in [11] it was 4; in assay [12], 25; in assay [14], 229. The same molecule displayed a Mean fluorescence intensity in assay [15] of 82.

B7: 405B8H3-1 humanized antibody (antibody, V domains shown)
VH: B3 VH with A72R, K74T
VL: B3 VL
Take B7: the Mean fluorescence intensity amounted to 178 in assay [8]; 257 in assay [9]; 11 in assay [10]; 4 in assay [11]; 26 in assay [12]; 244 in [14]. In [15], this molecule came in with a Mean fluorescence intensity of 73. For the same molecule, the Kd in assay [13] turned out to be 2.54 nM. Further, the koff in assay [13] turned out to be 0.000254 s⁻¹. Further, the kon in assay [13] worked out at 100000 M⁻¹ s⁻¹.

B8: 405B8H3-12 humanized antibody (antibody, V domains shown)
VH: B3 VH with R38K, M48I, R67K, V68A, V79A
VL: B3 VL with Q3K, A43S, T69Q, F71Y
As to B8, the Mean fluorescence intensity in assay [8] turned out to be 142; in assay [9], 229; in assay [10], 11; in [11], 4; in [12] it was 23; in [14], 207. Also, the Mean fluorescence intensity in assay [15] was 61.

B9: 405B8H3-11 humanized antibody (antibody, V domains shown)
VH: B3 VH with M48I, V68A, V79A
VL: B3 VL with Q3K, A43S, T69Q, F71Y
Consider B9, for which the Mean fluorescence intensity was determined as 164 in assay [8]; 230 in assay [9]; 11 in assay [10]; 4 in assay [11]; 25 in assay [12]; 220 in assay [14]. The molecule also came in with a Mean fluorescence intensity in assay [15] of 71.

In general, Kd refers to the equilibrium constant for the complex coming apart. A word on the koff: it is the first-order rate constant of dissociation. By kon is commonly meant a measure of how fast the partners come together.

The record behind these values is patent US20210155689A1 (SHANGHAI PHARMAEXPLORER, published 2021).
